We go through 1 substance from patent US20220088117.

The test system of the data set is T1, Serp-1 (myxomavirus-derived serine protease inhibitor).
T1 sequence: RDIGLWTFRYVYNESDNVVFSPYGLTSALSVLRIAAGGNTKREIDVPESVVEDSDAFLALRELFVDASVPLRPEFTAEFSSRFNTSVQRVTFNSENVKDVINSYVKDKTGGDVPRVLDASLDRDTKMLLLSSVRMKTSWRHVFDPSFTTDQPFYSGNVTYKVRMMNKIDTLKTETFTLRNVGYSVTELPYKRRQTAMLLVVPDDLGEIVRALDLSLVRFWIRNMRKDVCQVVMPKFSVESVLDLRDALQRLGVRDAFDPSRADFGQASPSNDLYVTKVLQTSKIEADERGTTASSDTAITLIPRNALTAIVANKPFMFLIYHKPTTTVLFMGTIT

Take “urokinase-type plasminogen activator (uPA)”: the “uPA activity in an in vitro substrate conversion assay” value was “Serp-1 inhibition of uPA activity in an in vitro substrate conversion assay is not affected by the presence of a broad-spectrum antibiotic cocktail”.
